Here are results for 18 sequences from the DeepSol protein solubility set.

The data set in a line: soluble on expression in E. coli; label from the status in PepcDB or PDB records.
As for “MALTVSLLDKLIDSDPTTREEKDFPVSQQHMLNGLLRDLESMLNSRIGWKNIHEDFLEVRYSILNYGLPDFSSMPYSSQDGQSQLCDIVYEAIREFEPRLRNPHVQISDEKNAIDRTLRLEISATCLIDNDIHELRFNSEVEPVNLGMKLSRAK”, the “soluble on expression in E. coli” value is reported as “not soluble”.
In the case of “MALVPYEESAAIGLQKFHKPLATFSFANHTIQIRQDWRQLGVAAVVWDAAVVLSMYLEMGAVELRGCSAVELGAGTGLVGIVAALPGAQVTITDRKVALEFLKSNVEANLPPHIQPKAVVKELTWGQNLESFSPGEFDLILGADVIYLEDTFTDLLQTLGHLCSNNSVILLACRIRYERDSNFLTMLERQFTVSKVHYDPEKDVHIYKAQKRNQREDL” it was “not soluble”; in that of “MAMAALKDLVEFQLKNAQELVTVLEAEKVAITSRISVDIESIAKQKLTLVNQLQQTDQRIAKHPHVASLTEDTYLNELVSQIRSIIMDCQQANLINGDALARAQLSFNKLNNLMQQSHGKIGMTYSATGKTHTISTLGTNIKA”, “not soluble”.
As to “MAMHTWFECKIRYEKTMENGMQKKVTEPYLVDALSFTEAEARIIEEMTPFITGEFTVSDIKRANYSELFPSDEESADRWFKCKLIFITLDEKSGAEKKTSTQVLVQAADLRDAVKKLDEGMKGTMADYQIGMVSETPLMDVYPYSAGPNDKPEFDPSKA”, the “soluble on expression in E. coli” value is reported as “not soluble”.
As for “MAMITGGELVVRTLIKAGVEHLFGLHGSHIDTIFQACLDHDVPIIDTRHEAAAGHAAEGYARAGAKLGVALVTAGGGFTNAVTPIANAWLDRTPVLFLTGSGALRDDETNTLQAGIDQVAMAAPITKWAHRVMATEHIPRLVMQAIRAALSAPRGPVLLDLPWDILMNQIDEDSVIIPDLVLSAHGARPDPADLDQALALLRKAERPVIVLGSEASRTARKTALSAFVAATGVPVFADYEGLSMLSGLPDAMRGGLVQNLYSFAKADAAPDLVLMLGARFGLNTGHGSGQLIPHSAQVIQVDPDACELGRLQGIALGIVADVGGTIEALAQATAQDAAWPDRGDWCAKVTDLAQERYASIAAKSSSEHALHPFHASQVIAKHVDAGVTVVADGALTYLWLSEVMSRVKPGGFLCHGYLGSMGVGFGTALGAQVADLEAGRRTILVTGDGSVGYSIGEFDTLVRKQLPLIVIIMNNQSWGATLHFQQLAVGPNRVTGTRLENGSYHGVAAAFGADGYHVDSVESFSAALAQALAHNRPACINVAVALDPIPPEELILIGMDPFGSHHHHHH”, the “soluble on expression in E. coli” value is reported as “soluble”.
To “MAMKRREMLSLCGKSVIALGCGGLPAILRAQGRFPSKALTYVVAYTPGSANDILVRILAPELGTQLGQSIIVDNKPGAGGSIGMAAVAQSKADGYTLGLGSTATMAINRALYKNLPYDPLRDFESVVKFASTANVLVVPAGGPAKTLADLKPRDGKPLMFSSPGNGTTQHLAGVLFSSTTKLPTEHVPYRGPAESVMAVASGEVDFSLASLPSALAQIRAGRLRVLGCTSLKPPSSLPQAVSLAEQGLPGFERTEVWFGLVVPSGTPDQARLALEQASVQVLGKQDVREKLEQAGYQPANPQSEGKFDPFVREQVAFWADLVKQAGASIDLEHHHHHH” belongs “soluble”; to “MAMQLEICANSAASCRQAELGGATRVELCAGIPEGGTTPSAGEMAVARSLIAIPIHVIIRPRAGDFVYSSEEIEAMCYDIRVVRSLGMEGVVFGCLTPEGGYDEEANSRLLKEAQGMQLTFHRAFDVCAAPFEMLEKLIAAGFHRVLTSGCAPTALEGKDMIGALNKQATGRIGIMAGCGIRLGNIETLARHTGITQFHSSLRHDIPSSMRFRRPEVSMGGTVKIDEYSRPETSADMVRQAVDILQGILEHHHHHH”, “not soluble”.
In the case of “MANDGYFEPTQELSDETRDMHRAIISLREELEAVDLYNQRVNACKDKELKAILAHNRDEEKEHAAMLLEWIRRCDPAFDKELKDYLFTNKPIAHE” it was “soluble”; in that of “MANELATEGASGVDAPRIGPRLKAARQAQRLTLDDLAASCGITKGYLSKIERDHASASVATLVRICAALNIPVGSLFESSAAGEVVRADNYPPISFGGERMAEFLLTPFGERRIQSLLSRIEPGGGSGSETYELPVDVAFVYVVSGRICISFNGPGAGEDVSLATGDAFTFSPQLPHSFRALGDDTATVLWILTPALPDDVRPTSR”, “not soluble”; in that of “MANEPQKSDDNGQAAEAVVTDDEIVLQDQQLKTIEDEQKSVPLVATLAPFSILCAEYDNETSAAFLSKATELSEVYGEIRYIRGDGNCFYRAILVGLIEIMLKDRARLEKFIASSRDWTRTLVELGFPDWTCTDFCDFFIEFLEKIHSGVHTEEAVYTILNDDGSANYILMFFRLITSAFLKQNSEEYAPFIDEGMTVAQYCEQEIEPMWKDADHLAINSLIKAAGTRVRIEYMDRTAAPNGGWHYDIPSDDQQIAPEITLLYRPGHYDVIYKKDSTEASEIEN”, “not soluble”.
Consider “MANFTAADVKRLRELTGAGMLACKNALAETDGDFDKAVEALRIKGAKDVGKRAERATAEGLVAAKDGALIELNCETDFVAKNAEFQTLADQVVAAAAAAKPADVDALKGASIGDKTVEQAIAELSAKIGEKLELRRVAIFDGTVEAYLHRRSADLPPAVGVLVEYRGDDAAAAHAVALQIAALRARYLSRDDVPEDIVASERRIAEETARAEGKPEQALPKIVEGRLNGFFKDAVLLEQASVSDNKKTVKALLDVAGVTVTRFVRFEVGQA”, for which the “soluble on expression in E. coli” value is recorded as “not soluble”.
With “MANGTVLHFRFNVKQIRAKIVRKSYRFFPNDTAGHIRNMHDTMNKIFENSPPAFSYKPIETLNKCIAKVKSDVCHSTGGICKAAMDNVTNWVYNTTEGLFTTGTRLIV”, the “soluble on expression in E. coli” value was “not soluble”.
With “MANHKPEIVITYCTQCQWLLRAAWLAQELLSTFADDLGRVALEPGTGGIFRITCNGVQIWERKADGGFPEAKVLKQRVRDQVDPQRDLGHNDRLEHHHHHH”, the “soluble on expression in E. coli” value is recorded as “soluble”.
Regarding “MANMKENEKVIMEKGIHTDFKENMTYGEYLQLDSLLSSQKRLSDHHDEMLFIVIHQASELWMKLILHELNAAIEFIKQDKLQPAFKMLARVSKIQSQIIQSWDILATLTPSEYIEFRDSLGQASGFQSYQYRMIEYALGYKTPHALKIYEKDPELHARLHKALHAPSLYDVAIQALVKEGFPIHKDVLNRDITQPYEEDATVEAAWLEVYADVKKYWNLYQLAEKLIDIEDWLQQWRFRHMKTVERIIGHKMGTGGSSGVSYLKRVLDQQFFPELWNVRTKLMAGDPNSLEHHHHHH”, the “soluble on expression in E. coli” value is given as “soluble”.
Take “MANRCRLKPYNRRQNNACSNRTHTLPANGLRNLRLLDLRTKVTELKHIGGQSTAAIADLAGEMRRLAKKSKMLLKGLWPFLSSTISAFKINQSLFKHYYKTVQLLNCKHRKKNY”: the “soluble on expression in E. coli” value was “not soluble”.
As to “MANSSPCMKAVRVPKSEAEQVRRLAEKLGVKDKSRRITATGDYVEIPIIDSAESFFKGYTIVEQDNPVFSRKRSLREILRGKVPEELIPTNYKVIGDIVVVKLDERAREYAKVIGEALMQINPCKAVWCDYGRYGMKRKPRMELIAGEGSVTEHRENGCRFRIDVAKVMFSLGNQAERMRIARLVEDGEVVVDMFAGIGYFSIPIAVHSKARRIYSIEINPESYKLLLENIKLNDVGNIVPILGDSQFVTPEGVADRVVMGHIYCHDYLHTAIRALKERGVVHYHEATPEAVIDRPVRRVEKACRKMGKKCRILGFKKVKNYSPGVYHVVVDAEVY”, the “soluble on expression in E. coli” value is given as “not soluble”.
To “MANSSRRTTAFSEAEKAAVYRALLTRRDIRHFRPDPIPEEVLERLYQAFHAAPSVGLTQPWAIVEIRERATKERVFALHQEARARERALFQGKAQRVYDRLRLEGLLEAPLHLAVFQRPVARSLGHHTMPETLAYSVVLAVGNLWTAARAEGIGVGWVSILEPEAVARLLGAPPDYRLLAYLCLGYPRAWPDEPLLERAGWRQREPLLRYRERFP” belongs “soluble”.
To “MAPCLENVACVNLSAMPPAPPSPQPVSHKQAATLCRQGRTCALKSGSNESGGSVTSTYTSYRLISQDIGKSLERVSKQPDVARETEYYREKIGSVKSIDDFMADTRLYNYALKAHGLEDMAYAKAFIRKVLTEGASDKNAFANKLSDNRYAELAKSLDFAGLGAAATATEAAKSGVIGNYARQTLEQEAGDDNNGVRLALYFERKAPTIKSGLDFLADDALAQVFRTTFNLPDAFAAADVDKQAALIEKSINIKDLQDPEKVGKLLERFTIMWEMQNPSTTYDPLAVFGSSSGYGISPDLLISINSLKLGGKAAALEHHHHHH” belongs “soluble”.
